Test in all cases: competitive cell adhesion assay
Experiment [1] deals with integrins on WM-115 cells (mainly integrin α5β1, αVβ3, and αVβ5).
The target is the same in experiment [2]. The source holds these as a separate data set.
For experiment [3] the target is unchanged. The source holds these as a separate data set.
For experiment [4] the target is unchanged. The source holds these as a separate data set.
Experiment [5] has the same target. This is another data set of the same source.
For experiment [6] the target is unchanged. This is another data set of the same source.

Read-outs that look alike come from different tables or passages of the source.

B1: cyclopeptide-1 c-(-fEANE-) (peptide)
peptide: FEANE
HELM: PEPTIDE1{[dF].E.A.N.E}$PEPTIDE1,PEPTIDE1,1:R1-5:R2$$$V2.0
SMILES: C[C@@H]1NC(=O)[C@H](CCC(=O)O)NC(=O)[C@@H](Cc2ccccc2)NC(=O)[C@H](CCC(=O)O)NC(=O)[C@H](CC(N)=O)NC1=O
As usually defined, the IC50 is the concentration that gives 50% inhibition. The low end stands for inhibition by little substance, the high end for a need for much substance. As to B1, the IC50 in experiment [1] is > 1000 µM; in experiment [2], 43 to 340 µM; in experiment [3], > 1000 µM.

B2: cyclopeptide-5 c-(-FEANe-) (peptide)
peptide: FEANE
HELM: PEPTIDE1{F.E.A.N.[dE]}$PEPTIDE1,PEPTIDE1,1:R1-5:R2$$$V2.0
SMILES: C[C@@H]1NC(=O)[C@H](CCC(=O)O)NC(=O)[C@H](Cc2ccccc2)NC(=O)[C@@H](CCC(=O)O)NC(=O)[C@H](CC(N)=O)NC1=O
For the molecule B2, the concentration for half-maximal inhibition (IC50) in experiment [1], in experiment [2] and in experiment [3] was > 1000 µM throughout.

B3: cyclopeptide-7 c-(-RGDlA-) (peptide)
peptide: RGDLA
HELM: PEPTIDE1{R.G.D.[dL].A}$PEPTIDE1,PEPTIDE1,1:R1-5:R2$$$V2.0
SMILES: CC(C)C[C@H]1NC(=O)[C@H](CC(=O)O)NC(=O)CNC(=O)[C@H](CCCNC(=N)N)NC(=O)[C@H](C)NC1=O
Turning to B3, the IC50 in experiment [4] came out at 1.65 µM; in experiment [5], 0.88 µM; in experiment [6], 0.67 µM; in experiment [3], 2.39 µM.

B4: cyclopeptide-3 c-(-FEaNE-) (peptide)
peptide: FEANE
HELM: PEPTIDE1{F.E.[dA].N.E}$PEPTIDE1,PEPTIDE1,1:R1-5:R2$$$V2.0
SMILES: C[C@H]1NC(=O)[C@H](CCC(=O)O)NC(=O)[C@H](Cc2ccccc2)NC(=O)[C@H](CCC(=O)O)NC(=O)[C@H](CC(N)=O)NC1=O
In the case of B4, the IC50 in experiment [1], in experiment [2] and in experiment [3] was > 1000 µM throughout.

B5: cyclopeptide-4 c-(-FEAnE-) (peptide)
peptide: FEANE
HELM: PEPTIDE1{F.E.A.[dN].E}$PEPTIDE1,PEPTIDE1,1:R1-5:R2$$$V2.0
SMILES: C[C@@H]1NC(=O)[C@H](CCC(=O)O)NC(=O)[C@H](Cc2ccccc2)NC(=O)[C@H](CCC(=O)O)NC(=O)[C@@H](CC(N)=O)NC1=O
As to B5, the IC50 in experiment [1], in experiment [2] and in experiment [3] was > 1000 µM throughout.
With ANFEANELFFISEDV [linear peptide 6 (…)], the concentration for half-maximal inhibition (IC50) was 239 µM in experiment [1], 9 µM in experiment [2] and > 1000 µM in experiment [3].

B6: cyclopeptide-2 c-(-FeANE-) (peptide)
peptide: FEANE
HELM: PEPTIDE1{F.[dE].A.N.E}$PEPTIDE1,PEPTIDE1,1:R1-5:R2$$$V2.0
SMILES: C[C@@H]1NC(=O)[C@@H](CCC(=O)O)NC(=O)[C@H](Cc2ccccc2)NC(=O)[C@H](CCC(=O)O)NC(=O)[C@H](CC(N)=O)NC1=O
For the molecule B6, the IC50 was 54 to 430 µM in experiment [1], 30 to 530 µM in experiment [2] and > 1000 µM in experiment [3].

The record behind these values is PMC3417467.
